Measured values: US20230250135A1

What was measured:
Conditions in all cases: remark: other sources report otherwise
[1] = target: UFV161453 (influenza A virus A/Hong Kong/1/68 (H3N2))
[2] = target: UFV161333 (influenza A virus A/Hong Kong/1/68 (H3N2)); test: Binding-AlphaLISA, Expi293F supernatant, normalized to UFV161686
[3] = target: UFV161715 (influenza A virus A/Hong Kong/1/68 (H3N2)); test: Binding-AlphaLISA, Expi293F supernatant, normalized to UFV161333
[4] = target: UFV161721 (influenza A virus A/Hong Kong/1/68 (H3N2)); test: as above

B1: CR9114 (antibody, V domains shown)
VH: QVQLVQSGAEVKKPGSSVKVSCKSSGGTSNNYAISWVRQAPGQGLDWMGGISPIFGSTAYAQKFQGRVTISADIFSNTAYMELNSLTSEDTAVYFCARHGNYYYYSGMDVWGQGTTVTVSS
VL: SYVLTQPPAVSGTPGQRVTISCSGSDSNIGRRSVNWYQQFPGTAPKLLIYSNDQRPSVVPDRFSGSKSGTSASLAISGLQSEDEAEYYCAAWDDSLKGAVFGGGTQLTVL
- binding relative to reference UFV161454 [1]: 61%
- fold increase in binding relative to reference UFV161686 [2]: 5 fold
- binding relative to reference UFV161333 [3]: 145%
- binding relative to reference UFV161333 [4]: 145%
